Results on one molecule are retold here after patent US20260035464A1 (STAIDSON BIOPHARMA, published 2026).

The target in assay [1] is T1, human BTLA (Uniprot Q7Z6A9) expressed on cells (human, UniProt Q7Z6A9 31-289). Nature of the assay: cell-based or functional assay.
In assay [2] the target is T1, human BTLA (Uniprot Q7Z6A9) expressed …. Nature of the assay: flow cytometry on Expi293 cells stably overexpressing huBTLA, PE anti-human Fc. From the text:
To examine the binding of the chimeric anti-BTLA antibodies to huBTLA overexpressing cells, Expi293 cells stably overexpressing huBTLA were used to perform FACS analysis. Briefly, the coding sequence of huBTLA (Uniprot, Q7Z6A9) was cloned into a lentiviral vector and the recombinant virus was packaged according to the instruction of the virus packaging kit (Lenti-X™ Packaging Single Shots, Cat #631275, Takada). The Expi293 cells were transduced with the recombinant virus.
Expi293 cells stably overexpressing huBTLA were incubated with the chimeric anti-BTLA antibodies 83F2 or 86B7 in PBS containing 0.5% BSA, 1 mM EDTA, and 0.1% sodium azide (FACS buffer) for 30 minutes at 4° C. The cells were washed, and then incubated with 10 nM phycoerythrin (PE) conjugated anti-Human Fc Ab (BioLegend, cat #409304) for 20 minutes at 4° C. Cells were washed and then analyzed by flow cytometry with Attune (ThermoFisher Scientific). Data were analyzed with FlowJo software. Antibody binding is represented as median fluorescence intensity (MFI).
For orientation: Flow cytometry measures light scatter and fluorescence of single cells or particles in a stream.

In assay [3] the target is T2, human BTLA extracellular domain with C-terminal 10xHis tag (human, UniProt Q7Z6A9 31-157).
T2 construct: also called HuBTLA-His; His-tag-huBTLA
T2 sequence: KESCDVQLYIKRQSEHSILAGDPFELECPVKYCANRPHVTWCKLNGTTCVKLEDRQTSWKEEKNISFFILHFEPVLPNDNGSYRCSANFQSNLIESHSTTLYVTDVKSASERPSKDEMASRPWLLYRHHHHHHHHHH
Nature of the assay: BLI (Octet RED96), antibody captured on AHC biosensor, His-tag-huBTLA in solution, 1:1 model. The procedure: The following kinetic assay was performed using anti-human IgG Fc capture (AHC) biosensors (ForteBio) in kinetics buffer (PBS, 0.1% Tween-20 and 1% bovine serum albumin): (a) antibody (2 μg/mL) for 300 sec, (b) baseline for 120 sec, (c) association with purified His-tag-huBTLA (2.5, 0.5 and 0 μg/mL) and His-tag-rhesus monkey BTLA (Sino Biologcal, cat #90250-C08H) (2.5, 0.5 and 0 μg/mL) for 420 sec and (d) dissociation for 1200 sec. Data fitting and analysis was performed with Octet data analysis software 8.0 (ForteBio) using a 1:1 binding model after Savitzky-Golay filtering.
(In general: Biolayer interferometry detects binding as a change in optical thickness at a sensor tip.)

Assay [4] deals with T3, rhesus monkey BTLA extracellular domain protein with His tag (Sino Biological, cat #90250-C08H) (rhesus monkey, UniProt G7MKA9 31-157).
T3 construct: extracellular domain; Bought protein; also called His-tag-rhesus monkey BTLA; not shown: His tag
T3 sequence: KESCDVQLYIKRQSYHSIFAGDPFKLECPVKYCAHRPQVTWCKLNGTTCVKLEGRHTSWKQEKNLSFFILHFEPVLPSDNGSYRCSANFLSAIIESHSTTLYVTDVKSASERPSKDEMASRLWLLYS
Nature of the assay: ELISA, plate coated with rhesus monkey BTLA, detection with goat anti-human IgG Fc-AP, OD405. The protocol: BTLA binding of purified recombinant chimeric antibodies by ELISA: The huBTLA and rhesus monkey BTLA antigen binding ELISA was performed on the purified recombinant chimeric antibodies. Briefly, 384-well, clear flat bottom high binding plates (Corning, cat #3700) were coated overnight at 4° C. with 0.333 μg/mL of huBTLA or rhesus monkey BTLA in PBS. The following purified process was performed as described in ELISA binding assay in Example 2, except that the secondary antibody was goat anti human IgG Fc-AP (Southern Biotech, cat #2014-04).
Background: In an ELISA, binding on a coated surface is turned into a signal by an enzyme label.

B1: chimeric anti-BTLA antibody 86B7 (antibody, V domains shown)
VH: QVTLKESGPGILQPSQTLSLTCSFSGFSLSTFGMGVSWIRQPSGKGLEWLAHIYWDDDKRFNPSLKSRLSISKDTSNNQVFLKITTVDTADTATYYCARGNWDGETYFDYWGQGTTLTVSS
VL: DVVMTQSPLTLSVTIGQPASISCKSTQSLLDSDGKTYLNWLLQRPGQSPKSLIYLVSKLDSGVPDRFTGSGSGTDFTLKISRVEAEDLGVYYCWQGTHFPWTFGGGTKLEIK
As usually defined, the EC50 is the concentration that produces a half-maximal response. A word on the Kd: it is the equilibrium constant for the complex coming apart. By koff is commonly meant the first-order rate constant of dissociation. What is called kon is a measure of how fast the partners come together. Usually EC50 (read off the curve) stands for the midpoint of the concentration-response curve. As to B1, the “EC50 of recovery of IL-2 production, Raji-HVEM/primary human T cell coculture” value in assay [1] was 1.68 nM. The EC50 in assay [2] stood at 0.554 nM. In assay [3], this molecule returned an equilibrium dissociation constant (Kd) of 0.257 nM, a koff of 9.98e-05 s⁻¹ and a kon of 389000 M⁻¹ s⁻¹. Besides, the “EC50 (read off the curve)” value in assay [4] was roughly 0.4 nM.
